The text below walks through data of IntAct's records for PubMed 24282027.

One assay concerns the target dyn1_human DNM1 (UniProt Q05193).
Another assay concerns the target mfn1_mouse Mfn1 (UniProt Q811U4).
UniProt Q811U4, sequence (Q811U4 whole entry): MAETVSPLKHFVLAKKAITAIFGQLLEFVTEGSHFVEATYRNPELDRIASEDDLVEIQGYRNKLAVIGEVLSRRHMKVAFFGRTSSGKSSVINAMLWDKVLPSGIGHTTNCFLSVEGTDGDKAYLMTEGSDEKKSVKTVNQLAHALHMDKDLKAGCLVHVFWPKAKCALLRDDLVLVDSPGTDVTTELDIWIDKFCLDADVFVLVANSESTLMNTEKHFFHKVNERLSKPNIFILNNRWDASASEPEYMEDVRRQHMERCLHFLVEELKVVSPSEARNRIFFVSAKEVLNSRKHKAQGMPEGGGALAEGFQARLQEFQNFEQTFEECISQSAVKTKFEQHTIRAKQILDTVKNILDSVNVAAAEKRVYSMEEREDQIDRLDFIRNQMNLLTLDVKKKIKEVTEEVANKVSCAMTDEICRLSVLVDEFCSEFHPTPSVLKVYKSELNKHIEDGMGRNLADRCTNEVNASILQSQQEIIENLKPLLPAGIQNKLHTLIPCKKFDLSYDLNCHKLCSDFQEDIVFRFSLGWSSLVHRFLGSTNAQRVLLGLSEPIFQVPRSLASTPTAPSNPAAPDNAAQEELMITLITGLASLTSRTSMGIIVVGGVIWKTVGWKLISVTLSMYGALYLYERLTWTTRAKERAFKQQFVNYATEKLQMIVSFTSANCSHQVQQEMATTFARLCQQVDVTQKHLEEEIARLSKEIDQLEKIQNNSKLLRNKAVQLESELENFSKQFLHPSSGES

UniProt Q05193, sequence (Q05193 whole entry): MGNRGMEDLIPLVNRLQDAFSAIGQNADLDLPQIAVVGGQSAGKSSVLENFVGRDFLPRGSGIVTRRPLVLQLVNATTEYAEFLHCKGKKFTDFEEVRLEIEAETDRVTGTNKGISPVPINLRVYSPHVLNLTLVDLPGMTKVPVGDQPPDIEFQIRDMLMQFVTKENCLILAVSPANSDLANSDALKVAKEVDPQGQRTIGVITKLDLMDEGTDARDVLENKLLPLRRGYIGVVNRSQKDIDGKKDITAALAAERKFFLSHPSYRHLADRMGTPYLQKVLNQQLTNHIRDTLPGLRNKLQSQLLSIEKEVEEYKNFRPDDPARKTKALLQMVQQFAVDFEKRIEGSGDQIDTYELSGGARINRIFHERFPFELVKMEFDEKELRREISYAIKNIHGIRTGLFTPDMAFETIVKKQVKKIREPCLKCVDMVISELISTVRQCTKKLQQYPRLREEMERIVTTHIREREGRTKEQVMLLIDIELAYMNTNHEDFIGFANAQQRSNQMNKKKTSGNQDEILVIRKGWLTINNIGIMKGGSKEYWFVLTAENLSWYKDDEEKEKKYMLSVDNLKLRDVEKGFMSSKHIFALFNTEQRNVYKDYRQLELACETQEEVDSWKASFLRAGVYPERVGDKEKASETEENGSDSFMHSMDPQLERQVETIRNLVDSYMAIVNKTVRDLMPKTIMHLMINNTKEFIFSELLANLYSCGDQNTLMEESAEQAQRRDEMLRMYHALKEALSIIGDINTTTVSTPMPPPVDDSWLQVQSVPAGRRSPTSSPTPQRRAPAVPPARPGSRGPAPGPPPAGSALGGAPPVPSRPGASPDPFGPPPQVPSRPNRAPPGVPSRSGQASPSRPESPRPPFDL

With “Leucine-rich repeat serine/threonine-protein kinase 2 (Homo sapiens), Q5S007 G2019S”, the “effect of a mutation on the interaction” value in the assay with dyn1_human DNM1 and with mfn1_mouse Mfn1 was “increasing interaction” throughout.
